Here are results for four sequences from the supplement of paper PMC5998384.

The test system of series [1] is HeLa Kyoto. Nature of the series: solubility change mitosis vs G1/S (difference of NP-40 vs SDS log2 ratios) (log2 ratio difference); higher = more soluble in mitosis.
For series [2], the system named is HeLa Kyoto. In words: solubility in G1/S (NP-40 vs SDS abundance) (log2 ratio); higher = more soluble. The conditions noted are these: cell cycle stage: G1/S.
The subject of series [3] is HeLa Kyoto. Nature of the series: thermal stability score vs G1/S (z-score of summed log2 fold changes over temperatures); higher = more thermally stable than in G1/S.
Where [4] appears, read: cell cycle stage: early G1 (4.5 h after nocodazole release).
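For solubility change mitosis vs G1/S (difference of NP-40 vs SDS log2 ratios) in this document: synchronized HeLa Kyoto cells (double thymidine block for G1/S, nocodazole release for mitosis), protein amounts in NP-40 versus SDS lysates quantified by mass spectrometry, three biological replicates.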
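For solubility in G1/S (NP-40 vs SDS abundance) in this document: HeLa Kyoto cells arrested at G1/S by double thymidine block, proteins quantified by TMT10plex mass spectrometry in mild NP-40 versus SDS extracts, three biological replicates.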
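For thermal stability score vs G1/S (z-score of summed log2 fold changes over temperatures) in this document: synchronized HeLa Kyoto cells, proteins quantified by TMT10plex mass spectrometry, three biological replicates, mitosis taken 0.5 h after nocodazole release, G1/S directly after double thymidine block.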

As to “MEGQSSRGSRRPGTRAGLGSLPMPQGVAQTGAPSKVDSSFQLPAKKNAALGPSEPRLALAPVGPRAAMSASSEGPRLALASPRPILAPLCTPEGQKTATAHRSSSLAPTSVGQLVMSASAGPKPPPATTGSVLAPTSLGLVMPASAGPRSPPVTLGPNLAPTSRDQKQEPPASVGPKPTLAASGLSLALASEEQPPELPSTPSPVPSPVLSPTQEQALAPASTASGAASVGQTSARKRDAPAPRPLPASEGHLQPPAQTSGPTGSPPCIQTSPDPRLSPSFRARPEALHSSPEDPVLPRPPQTLPLDVGQGPSEPGTHSPGLLSPTFRPGAPSGQTVPPPLPKPPRSPSRSPSHSPNRSPCVPPAPDMALPRLGTQSTGPGRCLSPNLQAQEAPAPVTTSSSTSTLSSSPWSAQPTWKSDPGFRITVVTWNVGTAMPPDDVTSLLHLGGGDDSDGADMIAIGLQEVNSMLNKRLKDALFTDQWSELFMDALGPFNFVLVSSVRMQGVILLLFAKYYHLPFLRDVQTDCTRTGLGGYWGNKGGVSVRLAAFGHMLCFLNCHLPAHMDKAEQRKDNFQTILSLQQFQGPGAQGILDHDLVFWFGDLNFRIESYDLHFVKFAIDSDQLHQLWEKDQLNMAKNTWPILKGFQEGPLNFAPTFKFDVGTNKYDTSAKKRKPAWTDRILWKVKAPGGGPSPSGRKSHRLQVTQHSYRSHMEYTVSDHKPVAAQFLLQFAFRDDMPLVRLEVADEWVRPEQAVVRYRMETVFARSSWDWIGLYRVGFRHCKDYVAYVWAKHEDVDGNTYQVTFSEESLPKGHGDFILGYYSHNHSILIGITEPFQISLPSSELASSSTDSSGTSSEGEDDSTLELLAPKSRSPSPGKSKRHRSRSPGLARFPGLALRPSSRERRGASRSPSPQSRRLSRVAPDRSSNGSSRGSSEEGPSGLPGPWAFPPAVPRSLGLLPALRLETVDPGGGGSWGPDREALAPNSLSPSPQGHRGLEEGGLGP [INPP5J]”, in the series with HeLa Kyoto [1], the “solubility change mitosis (log2)” value is -0.115. Moreover, the “solubility in G1/S (log2)” value with HeLa Kyoto [2] was 0.0932. In addition, the values for the thermal stability score in the series on HeLa Kyoto [3] (setting [4]) and in the series on HeLa Kyoto [3] (cell cycle stage: mitosis) were 0.193 and 0.518, respectively.

“MESGGRPSLCQFILLGTTSVVTAALYSVYRQKARVSQELKGAKKVHLGEDLKSILSEAPGKCVPYAVIEGAVRSVKETLNSQFVENCKGVIQRLTLQEHKMVWNRTTHLWNDCSKIIHQRTNTVPFDLVPHEDGVDVAVRVLKPLDSVDLGLETVYEKFHPSIQSFTDVIGHYISGERPKGIQETEEMLKVGATLTGVGELVLDNNSVRLQPPKQGMQYYLSSQDFDSLLQRQESSVRLWKVLALVFGFATCATLFFILRKQYLQRQERLRLKQMQEEFQEHEAQLLSRAKPEDRESLKSACVVCLSSFKSCVFLECGHVCSCTECYRALPEPKKCPICRQAITRVIPLYNS [MUL1]”: the “solubility change mitosis (log2)” value with HeLa Kyoto [1] was -0.00588. In the series on HeLa Kyoto [2], the “solubility in G1/S (log2)” value came out at 0.127. Further, the thermal stability score in the series on HeLa Kyoto [3] (setting [4]) is -0.138; in the series with HeLa Kyoto [3] (cell cycle stage: mitosis) it was 0.791.

Turning to “MESSSSDYYNKDNEEESLLANVASLRHELKITEWSLQSLGEELSSVSPSENSDYAPNPSRSEKLILDVQPSHPGLLNYSPYENVCKISGSSTDFQKKPRDKMFSSSAPVDQEIKSLREKLNKLRQQNACLVTQNHSLMTKFESIHFELTQSRAKVSMLESAQQQAASVPILEEQIINLEAEVSAQDKVLREAENKLEQSQKMVIEKEQSLQESKEECIKLKVDLLEQTKQGKRAERQRNEALYNAEELSKAFQQYKKKVAEKLEKVQAEEEILERNLTNCEKENKRLQERCGLYKSELEILKEKLRQLKEENNNGKEKLRIMAVKNSEVMAQLTESRQSILKLESELENKDEILRDKFSLMNENRELKVRVAAQNERLDLCQQEIESSRVELRSLEKIISQLPLKRELFGFKSYLSKYQMSSFSNKEDRCIGCCEANKLVISELRIKLAIKEAEIQKLHANLTANQLSQSLITCNDSQESSKLSSLETEPVKLGGHQVESVKDQNQHTMNKQYEKERQRLVTGIEELRTKLIQIEAENSDLKVNMAHRTSQFQLIQEELLEKASNSSKLESEMTKKCSQLLTLEKQLEEKIVAYSSIAAKNAELEQELMEKNEKIRSLETNINTEHEKICLAFEKAKKIHLEQHKEMEKQIERLEAQLEKKDQQFKEQEKTMSMLQQDIICKQHHLESLDRLLTESKGEMKKENMKKDEALKALQNQVSEETIKVRQLDSALEICKEELVLHLNQLEGNKEKFEKQLKKKSEEVYCLQKELKIKNHSLQETSEQNVILQHTLQQQQQMLQQETIRNGELEDTQTKLEKQVSKLEQELQKQRESSAEKLRKMEEKCESAAHEADLKRQKVIELTGTARQVKIEMDQYKEELSKMEKEIMHLKRDGENKAMHLSQLDMILDQTKTELEKKTNAVKELEKLQHSTETELTEALQKREVLETELQNAHGELKSTLRQLQELRDVLQKAQLSLEEKYTTIKDLTAELRECKMEIEDKKQELLEMDQALKERNWELKQRAAQVTHLDMTIREHRGEMEQKIIKLEGTLEKSELELKECNKQIESLNDKLQNAKEQLREKEFIMLQNEQEISQLKKEIERTQQRMKEMESVMKEQEQYIATQYKEAIDLGQELRLTREQVQNSHTELAEARHQQVQAQREIERLSSELEDMKQLSKEKDAHGNHLAEELGASKVREAHLEARMQAEIKKLSAEVESLKEAYHMEMISHQENHAKWKISADSQKSSVQQLNEQLEKAKLELEEAQDTVSNLHQQVQDRNEVIEAANEALLTKESELTRLQAKISGHEKAEDIKFLPAPFTSPTEIMPDVQDPKFAKCFHTSFSKCTKLRRSISASDLTFKIHGDEDLSEELLQDLKKMQLEQPSTLEESHKNLTYTQPDSFKPLTYNLEADSSENNDFNTLSGMLRYINKEVRLLKKSSMQTGAGLNQGENV [CCDC18]”, in the series with HeLa Kyoto [1], the “solubility change mitosis (log2)” value is 0.237. Moreover, the “solubility in G1/S (log2)” value with HeLa Kyoto [2] was found to be 0.155. In addition, the thermal stability score in the series with HeLa Kyoto [3] (setting [4]) is -0.388; in the series with HeLa Kyoto [3] (cell cycle stage: mitosis), -0.856.

Take “MEVRKLSISWQFLIVLVLILQILSALDFDPYRVLGVSRTASQADIKKAYKKLAREWHPDKNKDPGAEDKFIQISKAYEILSNEEKRSNYDQYGDAGENQGYQKQQQQREYRFRHFHENFYFDESFFHFPFNSERRDSIDEKYLLHFSHYVNEVVPDSFKKPYLIKITSDWCFSCIHIEPVWKEVIQELEELGVGIGVVHAGYERRLAHHLGAHSTPSILGIINGKISFFHNAVVRENLRQFVESLLPGNLVEKVTNKNYVRFLSGWQQENKPHVLLFDQTPIVPLLYKLTAFAYKDYLSFGYVYVGLRGTEEMTRRYNINIYAPTLLVFKEHINRPADVIQARGMKKQIIDDFITRNKYLLAARLTSQKLFHELCPVKRSHRQRKYCVVLLTAETTKLSKPFEAFLSFALANTQDTVRFVHVYSNRQQEFADTLLPDSEAFQGKSAVSILERRNTAGRVVYKTLEDPWIGSESDKFILLGYLDQLRKDPALLSSEAVLPDLTDELAPVFLLRWFYSASDYISDCWDSIFHNNWREMMPLLSLIFSALFILFGTVIVQAFSDSNDERESSPPEKEEAQEKTGKTEPSFTKENSSKIPKKGFVEVTELTDVTYTSNLVRLRPGHMNVVLILSNSTKTSLLQKFALEVYTFTGSSCLHFSFLSLDKHREWLEYLLEFAQDAAPIPNQYDKHFMERDYTGYVLALNGHKKYFCLFKPQKTVEEEEAIGSCSDVDSSLYLGESRGKPSCGLGSRPIKGKLSKLSLWMERLLEGSLQRFYIPSWPELD [DNAJC16]”: the “solubility change mitosis (log2)” value in the series on HeLa Kyoto [1] worked out at 1.48e-05. Besides, the “solubility in G1/S (log2)” value with HeLa Kyoto [2] was -0.398. In addition, the thermal stability score was -0.236 in the series with HeLa Kyoto [3] (setting [4]) and -0.485 in the series on HeLa Kyoto [3] (cell cycle stage: mitosis).
